# Assay results from PMC5538626 (2017).
# B1: PLEKHM1‐LIR WT peptide (EDEWVNVQY), biotinylated [modified: biotin; biotin] [not stated] / 6xHis‐tagged LC3B [human] (parent complex)
# chain 1: EDEWVNVQY
# chain 2: not shown
# B2: PLEKHM1‐LIR WT peptide (EDEWVNVQY), biotinylated [modified: biotin; biotin] [not stated] / 6xHis‐tagged GABARAP‐L1 [human] (parent complex)
# chain 1: EDEWVNVQY
# chain 2: not shown
# B3: PLEKHM1‐LIR WT peptide (EDEWVNVQY), biotinylated [modified: biotin; biotin] [not stated] / 6xHis‐tagged LC3C [human] (parent complex)
# chain 1: EDEWVNVQY
# chain 2: MPPPQKIPSVRPFKQRKSLAIRQEEVAGIRAKFPNKIPVVVERYPRETFLPPLDKTKFLVPQELTMTQFLSIIRSRMVLRATEAFYLLVNNKSLVSMSATMAEIYRDYKDEDGFVYMTYASQETFG
# Variants of: B1
# Assay: peptide array (biotinylated LIR peptide, 6xHis-mATG8, absorbance); n = 3; read off a plot
row,Variant,percent of parent [% Mutant LIR/WT]
1,chain 1 W4F,~8
2,chain 1 W4Y,~10
3,"chain 1 W4A, chain 1 V7A",~8
4,chain 1 V7L,~250
5,chain 1 V7I,~200

# Variants of: B1
# Assay: peptide array (biotinylated LIR peptide, 6xHis-mATG8, absorbance); n = 5; read off a plot
row,Variant,ratio to parent
1,"chain 1 W4A, chain 1 V7A",~0.17
2,"chain 1 V5C, chain 1 N6V, chain 1 V7L",~2.3
3,"chain 1 V5C, chain 1 N6F, chain 1 V7L",~1.9
4,"chain 1 V5C, chain 1 N6I, chain 1 V7L",~2.4

# Variants of: B2
# Assay: peptide array (biotinylated LIR peptide, 6xHis-mATG8, absorbance); n = 3; read off a plot
row,Variant,percent of parent [% Mutant LIR/WT]
1,"chain 1 W4A, chain 1 V7A",~7
2,chain 1 W4Y,~55
3,chain 1 W4F,~60
4,chain 1 V7I,~95
5,chain 1 V7L,~110

# Variants of: B2
# Assay: peptide array ELISA (biotinylated peptide on streptavidin plate, 6xHis-mATG8, anti-His-HRP, TMB); absorbance at 450 nm; n = 4; read off a plot
row,Variant,screen value [fold over mutLIR]
1,chain 1 N6A,~9.9
2,"chain 1 V5A, chain 1 N6A",~1.3
3,chain 1 V5A,~1.7
4,chain 1 V7A,~2

# Variants of: B3
# Assay: as above
row,Variant,screen value [fold over mutLIR]
1,chain 1 EDEWANVQY [chain 1 V5A],~1.5
2,"chain 1 EDEWAAVQY [chain 1 V5A, chain 1 N6A]",~1.2
3,chain 1 EDEWVAVQY [chain 1 N6A],~1.7
4,chain 1 EDEWVNAQY [chain 1 V7A],~1.4

# Variants of: B3
# Assay: peptide array (biotinylated LIR peptide, 6xHis-mATG8, absorbance); n = 3; read off a plot
row,Variant,percent of parent [% Mutant LIR/WT]
1,chain 1 EDEWVNLQY [chain 1 V7L],~85
2,chain 1 EDEWVNIQY [chain 1 V7I],~110
3,"chain 1 EDEAVNAQY [chain 1 W4A, chain 1 V7A]",~5
4,chain 1 EDEFVNVQY [chain 1 W4F],~50
5,chain 1 EDEYVNVQY [chain 1 W4Y],~25
